Data published in a protein production outcome set (Wang et al. 2014).

Experiment: label from the status in PepcDB records
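Further: failed if final PepcDB status was selected cloned or expressed and not failed if soluble or beyond.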

| Sequence | protein production |
| --- | --- |
| MTVSQDILLTDHFKQWIEIFKKGKVSDGTYRKYLYTLSVLKKHFSTATIKTMNRVKYQEMLNEFAEGHSDSSVKQINVHVRASLENLLDDFIIKNDFTKGLEHHHHHH | failed |
| MKVSSKLLSITNHHEYLDLVTDGAKFRIYLLDENIIRIRGTFDDDFAPEESYALVKTAWADATDDLIGDERQRVTPIAVELTETADGYTVSNGRYTLEIHAEPFYFEIKDQNGVTVHKDLVKRSFVQDDLGRRFHYSAMGDHDKFYGFGEKSGKLNKFKRRMRMHNTDSLGWNAAKSDPLYKMIPFYIDFNTTTNIASGLYYNNTHDSVFDMDCEHSNYWLRYSYFQCDGGDLDVFFIGGPTIKQVVEHYTDLTGKSAMMPLPSLGYMGSTMFYTELDQDADQAILDFIDTCKKNGIPCDGFFLSSGYTSGKDGKRYVFNWNKKRFPDPQKFVAELKKRGALLAPNIKPGMLVTHPLADEFMEKDAYIKTPDGQGSQVDQYWGGDAHFVDFTNPHGRDAWEQKMTEALLSIGITSIWNDNNEYEINDTQAVVDAEGQKSTIGALKPIMPTMMAKAAKDAINRYDATVRPYLVNRAGFAGIQRYAQTWAGDNYTSWTNVKYNIPTILGMGLSGVANQGCDIGGFDGPLPEPELFVRWVQNGIFQPRFSIHSCNNDNTVTEPWTYPAYTKYIRAAIQLRYSLVPYLYSLLYEASTKGSPIMRPLVYEFQDDPQVAEESFEFMLGASLLVANVVDKGQTAKSVYLPAGVDWLDLKTSQYYTGGQTITIPVDLGSIPMFLKAGSIVPQSKGLMNLHNDVIDKLDVLIEPSRDAEFVVYEDDGVTNNYRQGETLETTIKTTATADGVVIDFSRVGQYQTQVKTMALAVCCPKIAPLSVDLADQSLPRYLNAAKFADAAEGWYFDGESRQVQIKYANPEVAGYAVKVNFSVKDLISI | failed |
| MSLASYFIGVDVGTGSARAGVFDLQGRMVGQASREITMFKPKADFVEQSSENIWQAVCNAVRDAVNQADINPIQVKGLGFDATCSLVVLDKEGNPLTVSPSGRNEQNVIVWMDHRAITQAERINATKHPVLEFVGGVISPEMQTPKLLWLKQHMPNTWSNVGHLFDLPDFLTWRATKDETRSLCSTVCKWTYLGHEDRWDPSYFKLVGLADLLDNNAAKIGATVKPMGAPLGHGLSQRAASEMGLIPGTAVSVSIIDAHAGTIGILGASGVTGENANFDRRIALIGGTSTAHMAMSRSAHFISGIWGPYYSAILPEYWLNEGGQSATGALIDHIIQSHPCYPALLEQAKNKGETIYEALNYILRQMAGEPENIAFLTNDIHMLPYFHGNRSPRANPNLTGIITGLKLSTTPEDMALRYLATIQALALGTRHIIETMNQNGYNIDTMMASGGGTKNPIFVQEHANATGCAMLLPEESEAMLLGSAMMGTVAAGVFESLPEAMAAMSRIGKTVTPQTNKIKAYYDRKYRVFHQMYHDHMRYQALMQEGEGHHHHHH | not failed |
| MSNENKTIHDFELNLICDFFSNMERQGPGSPEVTLKALSFIDNLTEKSLIADIGCGTGGQTMVLAGHVTGQVTGLDFLSGFIDIFNRNARQSGLQNRVTGIVGSMDDLPFRNEELDLIWSEGAIYNIGFERGLNEWRKYLKKGGYLAVSECSWFTDERPAEINDFWMDAYPEIDTIPNQVAKIHKAGYLPVATFILPENCWTDHYFTPKVAAQKIFLTKYAGNKIAEEFSMLQSIEEELYHKYKEYYGYTFFIAKKIRLLEHHHHHH | not failed |
| MGILDKVKNLLSQNADKVETVINKAGEFVDEQTQGNYSDAIHKLHDAASNVVGMSDQQS | not failed |
| MSLRGSQLGTSRGLMLGGIDLAPVLMVLGLLLSGLGLSMLAPALVDLVVENRDWRAFLGSSVITLFCGMMLTLANWRMPLRFNIRQGFLMTALAWLTMSLFGSMPFMLATTGLDFAGAFFESVSGLTTTGATVISGLEHQPPGILFWRCLLHWIGGIGIIGMAIALLPALRVGGMQLFRTESSDTSEKGMNRIGELGLAITAVYLTLTVVIALGYIAVGMSVFDAICHAFGTVSTGGFSNWDTSLGHLDAAGLWMSTVGMMLGAMPFVLYVQVARGRPMDVVRDPQVQALTGFLVACWLVMALWQSLENGRPFLDALTASAFNITSVVTTTGYASEDYTLWGGFPQLFFFMITFAGGCTGSTSGGIKMFRYQVAYKVLSANIRRRYMPNAVIVSTYGGRAIDEDVAVSVVLFFFATGATTAIIALALTMVGLDWVTALTGTAAAIANVGPGLGTIVGPAGNYATLPDSAKWLLSLAMLMGRLEFFTLLVLFSRDFWKS | failed |
| MRPHRAFSPGLTGVLPLRETRHLVEVLRARVGDRFTVFDGEREALAEVVDLGPPLRYRVLEERRPEREVGVEVVLYVALLKGDKLAEVVRAATELGATRIQPLVTRHSVPKEMGEGKLRRLRAVALEAAKQSGRVVVPEVLPPIPLKAVPQVAQGLVAHVGATARVREVLDPEKPLALAVGPEGGFAEEEVALLEARGFTPVSLGRRILRAETAALALLALCTAGEGR | not failed |
| MPAKRRSNARPARAWPTCLSRGSSAVKRVHVAAAVIRDASGKILIARRADTQHQGGLWEFPGGKVEPGEAVEAALARELQEELGIAVTAARPLIKVQHDYPDKQVLLDVWEVSAFSGEPHGAEGQPLAWVTARELADYEFPAANQPIVAAARLPAQYLITPEGLETPTLLRGMQKAVAQGCKLIQLRAPGGYDPQYRDLAVDAVGLCAGKAQLMLKGPFEWLGDFPSAGWHITAAQLRKYASAGRPFGKDRWLAASCHNAEELSLAQQMDVDFVTLSPVQPTQTHPDAQPLGWQQAEQLISGFNKPVYLLGGVGPAECQQAWAAGAQGVAGIRAFWPQD | failed |
| MLRGVAALVVYKGKPALAEEKGGRLELTLEGGARQRVRPKDVLFLHPGPASLDLKVPEGEEEAAWELLEGQTVSLRELAELVYGAYTPEAALGAYLLAQKGERFVLEGEGVRARTREELLALQEAERKRAERERAFQEALKRLKEGSPAPEDRPLLAEVEALARGERKESPVLRALNLPETPEAAHAFLLRLGLWQRENPHPRRLGLPLQPPDLPVPPLPEEDRVDLTHLPAFAIDDEGSQDPDDAVFAEKVEGGFRLFVHVADVAALVPPKSPLDEEALRRGANLYLPEGTVPMLPPAVTEALGLGLREVSPALTFELWVSEEGELLEERVYPSWVRVTRLTYREALGVEALRPLEALAEAFRAKRLAAGALEIALPEVKVRVEGEEVRITPLPPYPSRVWVREAMLLAGYAAAHLAVREGLPFPFATQEAPARRVEGEGLAAMWEQRKALKRAQLKAVPAPHKGLGLPLYAQVTSPLRRYLDLVAHQQLRAWLKGERPLSQAEVLERVGAAEAVADLVREAERKSKLHWTLLHLEAKGYEGPGVLVERRGGQGVFLLPELGLTAQVALPKALPLNAEARLRFLEADLPALEARFALV | failed |
| MNIVTLLGSPRSRGISAAIAARFTDTAAGLGAQTRTFELNRLAYRGCQGCYACKKTLDHCVLTDDLAQVLDAVRGADVVVLASPVYYGDVTAQLKGFIDRTFSYLKPDYLSNPQPSRLSPKKLVFVLTQGHPDEGMFADIFPRYEGFLTWLGFVDARLIRACGFGPSTVDKVPEQYLREAEQAAREIVGQGKG | failed |
| MAERTSDPAANDRFYFRQLLSGRDFAGADPIAQQMRNFAYFIGDRETGEAVVVDPAYAADELAAALEADGMRLAGVLVTHHHPDHVGGSMMGFTLKGVAELLEHRSVPVHVNSHEADWVSQVTGIARSELSAHEHGDTISVGAIDIELLHTPGHTPGSQCFLVDGRLVAGDTLFLEGCGRTDFPGGNVDDMFRSLQALAKLPGDPTVYPGHWYSAEPSAPLEEVKRSNYVYRASNLDQWRMLMGG | failed |
| MLGYAAMNRTLRERDPPRRCNRDMQKKTWESEGIEYAATLAAQNFEDLREILLWNRDHGIDFYRCSSKLVPWNSQFDITALPNYERVQSLAAECGALVQDNDMRLTFHPSHWCKLASESDDTVARSVESVEHHGRWLDLMGVPRSPRYAINVHIGAHYGDKAATADRFCDVVSDLAPRARDRLTVENDDTESLWSVQELVTDVASQVDIPVTFDYHHHSFTDRGLTYREGFELARETWDGARPITHYSEPARLRPDSDASPQAHADHVAAVPTWL | failed |
| MLRKNILAYYGANFLLIIAQSLPHAILTPLLLSKGLSLSEILLVQTFFSFCVLVAEYPSGVLADLMSRKNLFLVSNAFLIASFSFVLFFDSFIFMLLAWGLYGLYSACSSGTIEASLITDIKENKKDLSKFLAKNNQITYLGMIIGSSLGSFLYLKVHAMLYIVGIFLIMLCVLTIIFYFKEKEGDFKSQKSLKLLKEQVKGSLKELKDNPKLKILLVGHLITPVFFMSHFQMWQAYFLKQGVKEQYLFVFYIAFQVISILIHFLKASSYSQKIALSSLVVLLGVSPLLLSNIPYCFIGVYALMVAFFTYMSYCLNYQFSKFVSKNNISSLSSLLSSCVRVVSVLILSLSSLELRYFSPLTIITMHFALTLIILFFFLYKAKPFDE | failed |
| PVPATPILQLEECCTHNNSATLSWKQPPLSTVPADGYILELDDGNGGQFREVYVGKETMCTVDGLHFNSTYNARVKAFNKTGVSPYSKTLVLQTSEG | not failed |
| MNYGFVKVAAAVPRVKVADCKFNSERLEGLITIAEGKGVQILTFPEMCITGYTCGDLFAQQLLLEQAEMALIQILNSTRQLDIISILGMPVVVNSTVINAAVVIQKGKILGVVPKTYLPNYKEFYEQRWFTSALQVSENSVRLCGQIVPMGNNLLFETAETTFGIEICEDLWATVPPSSSLALQGAEIIFNLSADDEGIGKHNYLCSLISQQSARCISGYVFSSSGFGESTTDVVFAGNGLIYENGYLLARSERFCMEEQLIINEIDVECIRAERRVNTTFAANKANCPGKEAVRISTEFVNSKDLNLTRTFNPHPFVPQGNELNSRCEEIFSIQIAGLAQRLLHTGAKTAVIGISGGLDSTLALLVCVKTFDKLGLSRKDILGITMPGFGTTDRTYHNAIDLMNSLGVSIREISIREACIQHFKDIGHDLNIHDVTYENSQARERTQILMDIANQTWGMVIGTGDLSELALGWATYNGDHMSMYGVNAGIPKTLVKHLVQWVAENGMDETSKATLLDIVDTPISPELEHHHHHH | not failed |
| MIKDRFLQLIQLLISLFLIMGALGIGITIQKFTGVSVPGSVIGMLVLFFSMTLGLVKVDWVKPGATLFIRYMILLFVPISVGLMQHFDMLLANALPIIASAVGGSLIVLVSLAWLLDYLLKEKH | failed |
| MYKVGIVLFDDFTDVDFFLMNDLLGRTSDSWTVRILGTKPEHHSQLGMTVKTDGHVSEVKEQDVVLITSGYRGIPAALQDENFMSALKLDPSRQLIGSICAGSFVLHELGLLKGKKLTTNPDAKAVLQGMGGDVQDLPLVIEGNIATAGGCLSLLYLVGWLAERLFDSVKRKQIQNQLIPAGQMEIFETLISETIQSAESAYEYRSACESDAESLVV | not failed |
| MTYVYRKNPVAAATVTVKYIDTQGNSISDSIPLSGNVDQEYTTEQKIISGYTFKEVQGNKSGLFSTTPQTVTYIYTKNPIEIKTGTVTIKYVDTNGNSISDEITKSGNVGSLYTSEQKKILGYNFKEIQGIAEGQFTIESQTVTYVYTKISTPTIIKTSVIPPKTLSVKTLPKESLPETGDKFFGFTLLSGSLLILVSTTLYLLKSRKYK | failed |
| MGERIIPKNMKPMNGMLLEHLARYYFSTPYASGRVLDIACGTGYGSVMVAKTRKTEVDQVLGVDFDADVIHYAKQNYYHPKVSFLVGDAMDPYLRNQIGTFDTILSFETIEHVKDDRLFIERMRQLLKKDGTLVLSTPFGQGRGKPSDEPFHYHQLTEEEFRSLFDSFSEKEVFYQRGVTIEPKRTNVHYAFGVAVCKLEHHHHHH | failed |
| MTNLGDLEIFARVVSTGSMSAAGRALGFSAAVISKRIKRLEDRLGARLLQRTTRQISLTEAGQGFYDRVLGILAGLEEAEAYASGRSSQVQGTLRISAPTSFGRMHIAPHLTGFMKDHPDLKLHIVLTDDFTDIVAEGFDLAIRIGELSDSSLVARKLAPVRRLLCAAPSYVARHGAPTEIGELAKHICLPAHNNDNWKLEGPDGSLSYRPEGPLVTNSSEIIREAVIAGAGIALRSTWDIGRELREGRLVQVLPQWEGSHKLTLSAVYPSRQFLPAKVRQFIDYLAALYGPVPYWEQ | failed |
